Source: article doi:10.1101/2024.12.23.630085, “Accurate sequence-to-affinity models for SH2 domains from multi-round peptide binding assays coupled with free-energy regression” (bioRxiv, 2025)
Non-standard residues stand in square brackets, D forms with d. No end group written: not given here. *: point of attachment. FITC = O=C1OC2(c3ccc(O)cc3Oc3cc(O)ccc32)c2ccc(NC(=S)*)cc21; pY = N[C@@H](Cc1ccc(OP(=O)(O)O)cc1)C(=O)O; Ahx = NCCCCCC(=O)O

Assays:
Test in all cases: fluorescence polarisation; competition mode: unlabelled phosphopeptide competes with a FITC-labelled probe phosphopeptide for the purified SH2 domain; probe KD first measured in direct mode; as described in ref. 33
Details in all cases: both partners purified
Fyn SH2 domain (142-248) = target: T1, Fyn SH2 domain (142-248) (human, UniProt P06241 142-248, biotin on the AviTag)
T1 construct: human Fyn kinase, SH2 domain, residues 142-248; source: E. coli C43(DE3) with BirA helper plasmid, purified (HisTrap, HiTrap Q, Superdex 75); not shown: His6-SUMO, N-terminal, cleaved; AviTag, C-terminal, kept

Lyn SH2 domain (121-228) = target: T2, Lyn SH2 domain (121-228) (human, UniProt P07948 121-228, biotin on the AviTag)
T2 construct: source: E. coli C43(DE3) with BirA helper plasmid, purified (HisTrap, HiTrap Q, Superdex 75); not shown: His6-SUMO, N-terminal, cleaved; AviTag, C-terminal, kept

Yes SH2 domain (150-257) = target: T3, Yes SH2 domain (150-257) (human, UniProt P07947 150-257, biotin on the AviTag)
T3 construct: human Yes kinase, SH2 domain, residues 150-257; source: E. coli C43(DE3) with BirA helper plasmid, purified (HisTrap, HiTrap Q, Superdex 75); not shown: His6-SUMO, N-terminal, cleaved; AviTag, C-terminal, kept

Blk SH2 domain (116-222) = target: T4, Blk SH2 domain (116-222) (human, UniProt P51451 116-222, biotin on the AviTag)
T4 construct: human Blk kinase, SH2 domain, residues 116-222; source: E. coli C43(DE3) with BirA helper plasmid, purified (HisTrap, HiTrap Q, Superdex 75); not shown: His6-SUMO, N-terminal, cleaved; AviTag, C-terminal, kept

Measured: binding result

T1 sequence (P06241 142-248): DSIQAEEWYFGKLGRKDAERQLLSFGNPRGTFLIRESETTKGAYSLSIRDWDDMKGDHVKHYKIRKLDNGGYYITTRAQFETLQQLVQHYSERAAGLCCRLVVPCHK
T3 sequence (P07947 150-257): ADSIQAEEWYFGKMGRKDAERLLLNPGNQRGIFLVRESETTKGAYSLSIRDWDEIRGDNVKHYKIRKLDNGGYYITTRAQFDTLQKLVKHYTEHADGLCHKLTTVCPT
T4 sequence (P51451 116-222): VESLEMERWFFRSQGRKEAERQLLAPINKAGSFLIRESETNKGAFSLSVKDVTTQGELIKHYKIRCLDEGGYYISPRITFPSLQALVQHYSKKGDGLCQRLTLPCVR
T2 sequence (P07948 121-228): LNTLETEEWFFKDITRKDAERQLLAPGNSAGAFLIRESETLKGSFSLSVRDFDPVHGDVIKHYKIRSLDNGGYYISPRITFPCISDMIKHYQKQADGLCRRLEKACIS

B1: FITC-Ahx-GDG(pY)EEISPLLL (peptide)
peptide: {FITC-Ahx}-GDG[pY]EEISPLLL
notes: c-Src SH2 consensus peptide; the Y is phosphotyrosine; also called c-Src SH2 consensus; probe; source: synthetic peptide (SynPeptide, China)
binds: all assays above
